Experiment: FE-SEM self-assembly
Assay type: physicochemical
Settings: HEPES pH 7.4, porphyrin 1.15 × 10^–3 M, peptide 2.3 × 10^–3 M, time of incubation 7 days

Sequence: RGDSGAITIGH [RGDSGAITIGH + Py3P-Lys-NTA + Ni^2+]
- self-assembled nanostructure morphology: porous fibrillar network
